# Test results as given in patent US20190328788A1 (GENAGON THERAPEUTICS, published 2019).
# Ends that are not written are not given here.
# Target: T1, transforming growth factor-beta 1 (TGF-β1) (UniProt P01137 279-390)
# T1 construct: also called TGFb1; TGFB1
# Test: ELISA, peptide on streptavidin plate, ligand 100 ng/ml
# Method: (§1) Biotinylated synthetic peptide fragments from CLPTM1 (JPT peptides, Germany) were immobilized in a streptavidin 96 well plate (#15500 Pierce) at 1 μM in PBS over night at +4° C. Plate was then washed 4 times in 300 μl PBS with 0.05% tween-20 (wash buffer). The plate was then blocked with PBS 1% BSA and 0.05% tween-20 (blocking buffer) for 1.5 hours at room temperature, then washed 4 times in wash buffer. Ligands GDF15, TGFb1, TGFb2 and TGFb3 (Abcam) were added in blocking buffer at 100 ng/ml and incubated at room temperature for 2 hours. The plate was then washed 8 times in 300 μL wash buffer with 2× NaCl. An anti-GDF15 antibody was added at 1 μg/ml (R&D Systems, goat polyclonal) or a pan-specific anti-TGFb antibody (R&D Systems, mouse 1 D11), and the plate incubated in blocking buffer for 1 hour at room temperature followed by washing with 4×300 μl wash buffer. HAF017 anti-goat-HRP antibody (to detect the anti-GDF15 antibody) or Santa Cruz sc-2005 Goat anti-mouse-HRP (to detect the pan-specific anti-TGFb antibody) was added and the plate incubated for 1 hour in blocking buffer followed by a wash. TMB substrate was added and stopped after 15 minutes with H₂SO₄. OD 450-620 was measured in an ELISA reader.
# T1 sequence (P01137 279-390 limits assumed): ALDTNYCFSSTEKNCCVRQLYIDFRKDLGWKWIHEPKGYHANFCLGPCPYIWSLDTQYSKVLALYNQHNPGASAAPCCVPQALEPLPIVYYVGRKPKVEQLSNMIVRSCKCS
row,Binder,ELISA OD450 [OD450]
1,"PLRVSFCPLSLWRWQLYAAQG (also: biotinylated, site not given here) [CLPTM1 peptide fragment of SEQ ID NO: 23]",0.083
2,"LDQYVKFDAVSGDYYPIIYFG (also: biotinylated, site not given here, also called peptide 14) [CLPTM1 peptide fragment of SEQ ID NO: 21]",0.152
3,"GDYYPIIYFNDYWNLQKDYYG (also: biotinylated, site not given here, also called peptide 21) [CLPTM1 peptide fragment of SEQ ID NO: 28]",1.54
4,"RNLFPKDTLMNLHVYISEHEG (also: biotinylated, site not given here) [CLPTM1 peptide fragment of SEQ ID NO: 30]",0.015
5,"YEQSDEEQDSVKVALLETNPG (also: biotinylated, site not given here) [CLPTM1 peptide fragment of SEQ ID NO: 25]",0.01
6,"LWRWQLYAAQSTKSPWNFLGG (also: biotinylated, site not given here) [CLPTM1 peptide fragment of SEQ ID NO: 26]",0.013

# The remaining lines, values ahead:
row,ELISA OD450 [OD450],Binder
1,0.017,"NDYWNLQKDYYPINESLASLG (also: biotinylated, site not given here) [CLPTM1 peptide fragment of SEQ ID NO: 22]"
2,0.032,"FTDFNATSALFWEQHDLVYGG (also: biotinylated, site not given here) [CLPTM1 peptide fragment of SEQ ID NO: 31]"
3,0.002,"SGQVTSNGSIGRDPPAETQPG (also: biotinylated, site not given here) [CLPTM1 peptide fragment of SEQ ID NO: 9]"
4,0.043,"YPINESLASLPLRVSFCPLSG (also: biotinylated, site not given here, also called peptide 20) [CLPTM1 peptide fragment of SEQ ID NO: 27]"
5,0.01,"WQVIKGVLFRIFIIWAISSWG (also: biotinylated, site not given here) [CLPTM1 peptide fragment of SEQ ID NO: 29]"
6,0.018,"STKSPWNFLGDELYEQSDEEG (also: biotinylated, site not given here) [CLPTM1 peptide fragment of SEQ ID NO: 24]"
7,0.011,"ITINIVDDHTPWVKGSVPPPG (also: biotinylated, site not given here) [CLPTM1 peptide fragment of SEQ ID NO: 20]"

# Target: T2, transforming growth factor-beta 3 (TGF-β3) (UniProt P10600 301-412)
# T2 construct: also called TGFb3; TGFB3
# T2 sequence (looked up): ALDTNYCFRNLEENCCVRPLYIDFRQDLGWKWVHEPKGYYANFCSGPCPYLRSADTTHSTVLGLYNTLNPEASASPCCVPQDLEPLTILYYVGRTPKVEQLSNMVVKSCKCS
# Test: as above
# Method: as §1
row,Binder,ELISA OD450 [OD450]
1,"PLRVSFCPLSLWRWQLYAAQG (also: biotinylated, site not given here) [CLPTM1 peptide fragment of SEQ ID NO: 23]",0.016
2,"LDQYVKFDAVSGDYYPIIYFG (also: biotinylated, site not given here, also called peptide 14) [CLPTM1 peptide fragment of SEQ ID NO: 21]",0.065
3,"GDYYPIIYFNDYWNLQKDYYG (also: biotinylated, site not given here, also called peptide 21) [CLPTM1 peptide fragment of SEQ ID NO: 28]",0.151
4,"RNLFPKDTLMNLHVYISEHEG (also: biotinylated, site not given here) [CLPTM1 peptide fragment of SEQ ID NO: 30]",0.041
5,"YEQSDEEQDSVKVALLETNPG (also: biotinylated, site not given here) [CLPTM1 peptide fragment of SEQ ID NO: 25]",0.014
6,"LWRWQLYAAQSTKSPWNFLGG (also: biotinylated, site not given here) [CLPTM1 peptide fragment of SEQ ID NO: 26]",0.011

# Results, then the binder that gave them:
row,ELISA OD450 [OD450],Binder
1,0.025,"NDYWNLQKDYYPINESLASLG (also: biotinylated, site not given here) [CLPTM1 peptide fragment of SEQ ID NO: 22]"
2,0.029,"FTDFNATSALFWEQHDLVYGG (also: biotinylated, site not given here) [CLPTM1 peptide fragment of SEQ ID NO: 31]"
3,0.001,"SGQVTSNGSIGRDPPAETQPG (also: biotinylated, site not given here) [CLPTM1 peptide fragment of SEQ ID NO: 9]"
4,0.018,"YPINESLASLPLRVSFCPLSG (also: biotinylated, site not given here, also called peptide 20) [CLPTM1 peptide fragment of SEQ ID NO: 27]"
5,0.019,"WQVIKGVLFRIFIIWAISSWG (also: biotinylated, site not given here) [CLPTM1 peptide fragment of SEQ ID NO: 29]"
6,0.012,"STKSPWNFLGDELYEQSDEEG (also: biotinylated, site not given here) [CLPTM1 peptide fragment of SEQ ID NO: 24]"
7,0.068,"ITINIVDDHTPWVKGSVPPPG (also: biotinylated, site not given here) [CLPTM1 peptide fragment of SEQ ID NO: 20]"

# Target: T3, transforming growth factor-beta 2 (TGF-β2) (UniProt P61812 303-414)
# T3 construct: also called TGFb2; TGFB2
# T3 sequence (looked up): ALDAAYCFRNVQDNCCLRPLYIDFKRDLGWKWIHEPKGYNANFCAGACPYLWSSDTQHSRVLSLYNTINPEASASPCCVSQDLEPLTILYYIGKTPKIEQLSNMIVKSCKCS
# Test: as above
# Method: as §1
row,Binder,ELISA OD450 [OD450]
1,"PLRVSFCPLSLWRWQLYAAQG (also: biotinylated, site not given here) [CLPTM1 peptide fragment of SEQ ID NO: 23]",0.066
2,"LDQYVKFDAVSGDYYPIIYFG (also: biotinylated, site not given here, also called peptide 14) [CLPTM1 peptide fragment of SEQ ID NO: 21]",0.019
3,"GDYYPIIYFNDYWNLQKDYYG (also: biotinylated, site not given here, also called peptide 21) [CLPTM1 peptide fragment of SEQ ID NO: 28]",0.164
4,"RNLFPKDTLMNLHVYISEHEG (also: biotinylated, site not given here) [CLPTM1 peptide fragment of SEQ ID NO: 30]",0.009
5,"YEQSDEEQDSVKVALLETNPG (also: biotinylated, site not given here) [CLPTM1 peptide fragment of SEQ ID NO: 25]",0.007
6,"LWRWQLYAAQSTKSPWNFLGG (also: biotinylated, site not given here) [CLPTM1 peptide fragment of SEQ ID NO: 26]",0.008

# Next, values leading:
row,ELISA OD450 [OD450],Binder
1,0.005,"NDYWNLQKDYYPINESLASLG (also: biotinylated, site not given here) [CLPTM1 peptide fragment of SEQ ID NO: 22]"
2,0.014,"FTDFNATSALFWEQHDLVYGG (also: biotinylated, site not given here) [CLPTM1 peptide fragment of SEQ ID NO: 31]"
3,0.001,"SGQVTSNGSIGRDPPAETQPG (also: biotinylated, site not given here) [CLPTM1 peptide fragment of SEQ ID NO: 9]"
4,0.025,"YPINESLASLPLRVSFCPLSG (also: biotinylated, site not given here, also called peptide 20) [CLPTM1 peptide fragment of SEQ ID NO: 27]"
5,0.006,"WQVIKGVLFRIFIIWAISSWG (also: biotinylated, site not given here) [CLPTM1 peptide fragment of SEQ ID NO: 29]"
6,0.007,"STKSPWNFLGDELYEQSDEEG (also: biotinylated, site not given here) [CLPTM1 peptide fragment of SEQ ID NO: 24]"
7,0.005,"ITINIVDDHTPWVKGSVPPPG (also: biotinylated, site not given here) [CLPTM1 peptide fragment of SEQ ID NO: 20]"

# Target: T4, Growth and Differentiation Factor 15 (GDF15) (UniProt Q99988 197-308, limits assumed)
# T4 construct: also called MIC-1; MIC1
# T4 sequence (looked up): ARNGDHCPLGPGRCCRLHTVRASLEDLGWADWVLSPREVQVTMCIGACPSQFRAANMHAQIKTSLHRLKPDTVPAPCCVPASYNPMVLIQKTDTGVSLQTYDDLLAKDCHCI
# Test: as above
# Method: as §1
row,Binder,ELISA OD450 [OD450]
1,"PLRVSFCPLSLWRWQLYAAQG (also: biotinylated, site not given here) [CLPTM1 peptide fragment of SEQ ID NO: 23]",0.063
2,"LDQYVKFDAVSGDYYPIIYFG (also: biotinylated, site not given here, also called peptide 14) [CLPTM1 peptide fragment of SEQ ID NO: 21]",0.14
3,"GDYYPIIYFNDYWNLQKDYYG (also: biotinylated, site not given here, also called peptide 21) [CLPTM1 peptide fragment of SEQ ID NO: 28]",0.507
4,"RNLFPKDTLMNLHVYISEHEG (also: biotinylated, site not given here) [CLPTM1 peptide fragment of SEQ ID NO: 30]",0.055
5,"YEQSDEEQDSVKVALLETNPG (also: biotinylated, site not given here) [CLPTM1 peptide fragment of SEQ ID NO: 25]",0.022
6,"LWRWQLYAAQSTKSPWNFLGG (also: biotinylated, site not given here) [CLPTM1 peptide fragment of SEQ ID NO: 26]",0.033

# The remaining lines, values ahead:
row,ELISA OD450 [OD450],Binder
1,0.038,"NDYWNLQKDYYPINESLASLG (also: biotinylated, site not given here) [CLPTM1 peptide fragment of SEQ ID NO: 22]"
2,0.061,"FTDFNATSALFWEQHDLVYGG (also: biotinylated, site not given here) [CLPTM1 peptide fragment of SEQ ID NO: 31]"
3,0.009,"SGQVTSNGSIGRDPPAETQPG (also: biotinylated, site not given here) [CLPTM1 peptide fragment of SEQ ID NO: 9]"
4,0.22,"YPINESLASLPLRVSFCPLSG (also: biotinylated, site not given here, also called peptide 20) [CLPTM1 peptide fragment of SEQ ID NO: 27]"
5,0.023,"WQVIKGVLFRIFIIWAISSWG (also: biotinylated, site not given here) [CLPTM1 peptide fragment of SEQ ID NO: 29]"
6,0.053,"STKSPWNFLGDELYEQSDEEG (also: biotinylated, site not given here) [CLPTM1 peptide fragment of SEQ ID NO: 24]"
7,0.098,"ITINIVDDHTPWVKGSVPPPG (also: biotinylated, site not given here) [CLPTM1 peptide fragment of SEQ ID NO: 20]"
